Measurements taken from PMC13470446.

Target: microtubule polymers
Details: domain or fragment; chains chain; Polymerised alpha/beta-tubulin heterodimers (one repeat given). Source is not printed (assay 'as previously described' in a cited paper); commercial mammalian brain tubulin is assumed, porcine taken as likeliest (bovine possible). Brain tubulin is an isotype mixture with heterogeneous PTMs (acetyl-Lys40, detyrosination, polyglutamylation); TUBA1B and the pig beta chain are representatives only. GT; modification not given

B1: Smc5 hinge domain (residues 215–885), Q08204 215-885 (protein)
chain: LRELQGNEQSLQKDLDFKKAKIVHLRQESDKLRKSVESLRDFQNKKGEIELHSQLLPYVKVKDHKEKLNIYKEEYERAKANLRAILKDKKPFANTKKTLENQVEELTEKCSLKTDEFLKAKEKINEIFEKLNTIRDEVIKKKNQNEYYRGRTKKLQATIISTKEDFLRSQEILAQTHLPEKSVFEDIDIKRKEIINKEGEIRDLISEIDAKANAINHEMRSIQRQAESKTKSLTTTDKIGILNQDQDLKEVRDAVLMVREHPEMKDKILEPPIMTVSAINAQFAAYLAQCVDYNTSKALTVVDSDSYKLFANPILDKFKVNLRELSSADTTPPVPAETVRDLGFEGYLSDFITGDKRVMKMLCQTSKIHTIPVSRRELTPAQIKKLITPRPNGKILFKRIIHGNRLVDIKQSAYGSKQVFPTDVSIKQTNFYQGSIMSNEQKIRIENEIINLKNEYNDRKSTLDALSNQKSGYRHELSELASKNDDINREAHQLNEIRKKYTMRKSTIETLREKLDQLKREARKDVSQKIKDIDDQIQQLLLKQRHLLSKMASSMKSLKNCQKELISTQILQFEAQNMDVSMNDVIGFFNEREADLKSQYEDKKKFVKEMRDTPEFQSWMREIRSYDQDTKEKLNKVAEKYEEEGNFNLSFVQDVLDKLESEIAMVNHDES
Kd: 690 nM
